Here are results for 21 molecules from US20140056902A1 (Kyowa Kirin, published 2014).

Numbering of substitutions follows the chain as printed.

To fix the notation:
T1: human mature dimer BMP10 recombinant protein (manufactured by R&D systems, Cat#2926-BP) (human, UniProt O95393 317-424)
T1 construct: Bought protein; also called human BMP10
T1 sequence: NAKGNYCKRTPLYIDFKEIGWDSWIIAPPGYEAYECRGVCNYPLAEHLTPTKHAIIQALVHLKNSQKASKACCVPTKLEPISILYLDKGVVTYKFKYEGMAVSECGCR

T2: human mature dimer BMP9 recombinant protein (manufactured by R&D systems, Cat#3209-BP) (human, UniProt Q9UK05 320-429)
T2 construct: Bought protein; also called human BMP9; human BMP9 recombinant protein (manufactured by R&D systems)
T2 sequence: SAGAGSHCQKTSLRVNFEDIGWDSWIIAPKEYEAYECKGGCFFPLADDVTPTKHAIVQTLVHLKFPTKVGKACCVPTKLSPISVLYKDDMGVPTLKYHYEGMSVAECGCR

B1: 3B7-3-3 antibody (antibody, mouse IgG1, V domains shown)
VH: EVQLQQSRPELVKPGASVKISCKASDYSFTDYYMNWVKQSPDKSLEWIGEISPSSGGTTYNQKFKAKATLTVDKSSSTAYMQLKSLTSEDSAVYYCATRGAFYFDYWGQGTALTVSS
VL: QIVLTQSPALMSAFPGEKVTMTCSASSSVSYMYWYQQKPRSSPKPWIYLTSNLASGVPTRFSGSGSGTSYSLTISSMEAEDAATYFCQQWSSNPRTFGGGTKLEIKR
notes: Mouse monoclonal from a BMP9 KO mouse hybridoma; mouse IgG1 heavy chain, kappa light chain
B2: 10D5-2-3 antibody-humanized antibody HV0LV4 (antibody, V domains shown)
VH: EVQLVESGGGLVQPGGSLRLSCAASGFTFSNYWMNWVRQAPGKGLEWVGHIRLKSDNYATHYAESVRGRFTISRDDSKNSLYLQMNSLKTEDTAVYYCARGSNYVFAFWGQGTLVTVSS
VL: DIVLTQSPDSLAVSLGERATINCRASESVDNYGISFMNWYQQKPGQPPKLLIYAASNQGSGVPDRFSGSGSGTDFTLTISPMQAEDVAMYYCQQSKEVPWTFGQGTKLEIK
notes: Expressed from pKANTEX93
B3: 10D5-2-3 antibody-humanized antibody HV0LV3 (antibody, V domains shown)
VH: B2 VH
VL: B2 VL with L4M, Y40F, M82L, M89V, Y91F
notes: Expressed from pKANTEX93
B4: 10D5-2-3 antibody-humanized antibody HV3LV2 (antibody, V domains shown)
VH: B2 VH with G49A, A99T, R100G
VL: B2 VL with L4M, Y40F, P81S, M82L, M89V, Y91F
notes: Expressed from pKANTEX93
B5: 10D5-2-3 antibody-humanized antibody HV4aLV0 (antibody, V domains shown)
VH: B2 VH with G8R, L18M, N79S, R100G
VL: B2 VL with L4M, P81S, M82L, M89V
notes: Expressed from pKANTEX93
B6: 10D5-2-3 antibody-humanized antibody HV9LV2 (antibody, V domains shown)
VH: B2 VH with G8R, L18M, G49A, N79S, L81V, A94G, V95I, A99T, R100G
VL: B2 VL with L4M, Y40F, P81S, M82L, M89V, Y91F
notes: Expressed from pKANTEX93
B7: 10D5-2-3 antibody-humanized antibody HV4bLV2 (antibody, V domains shown)
VH: B2 VH with G49A, V95I, A99T, R100G
VL: B2 VL with L4M, Y40F, P81S, M82L, M89V, Y91F
notes: Expressed from pKANTEX93
B8: 10D5-2-3 antibody-humanized antibody HV4bLV0 (antibody, V domains shown)
VH: B2 VH with G49A, V95I, A99T, R100G
VL: B2 VL with L4M, P81S, M82L, M89V
notes: Expressed from pKANTEX93
B9: 10D5-2-3 antibody-humanized antibody HV3LV0 (antibody, V domains shown)
VH: B2 VH with G49A, A99T, R100G
VL: B2 VL with L4M, P81S, M82L, M89V
notes: Expressed from pKANTEX93
B10: 10D5-2-3 antibody-humanized antibody HV3LV3 (antibody, V domains shown)
VH: B2 VH with G49A, A99T, R100G
VL: B2 VL with L4M, Y40F, M82L, M89V, Y91F
notes: Expressed from pKANTEX93
B11: 10D5-2-3 antibody-humanized antibody HV3LV6 (antibody, V domains shown)
VH: B2 VH with G49A, A99T, R100G
VL: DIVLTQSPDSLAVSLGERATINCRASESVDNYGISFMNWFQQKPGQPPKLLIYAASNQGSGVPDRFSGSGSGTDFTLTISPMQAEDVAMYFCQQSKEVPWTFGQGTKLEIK
notes: Expressed from pKANTEX93
B12: 10D5-2-3 antibody-humanized antibody HV4bLV6 (antibody, V domains shown)
VH: B2 VH with G49A, V95I, A99T, R100G
VL: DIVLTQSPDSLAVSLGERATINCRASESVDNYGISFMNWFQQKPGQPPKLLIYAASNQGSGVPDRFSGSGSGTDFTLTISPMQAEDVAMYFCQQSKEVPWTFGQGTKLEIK
notes: Expressed from pKANTEX93
B13: 10D5-2-3 antibody-humanized antibody HV4bLV3 (antibody, V domains shown)
VH: B2 VH with G49A, V95I, A99T, R100G
VL: B2 VL with L4M, Y40F, M82L, M89V, Y91F
notes: Expressed from pKANTEX93
B14: 10D5-2-3 antibody-humanized antibody HV7bLV2 (antibody, V domains shown)
VH: B2 VH with G8R, L18M, G49A, L81V, A94G, A99T, R100G
VL: B2 VL with L4M, Y40F, P81S, M82L, M89V, Y91F
notes: Expressed from pKANTEX93
B15: 10D5-2-3 antibody-humanized antibody HV9LV3 (antibody, V domains shown)
VH: B2 VH with G8R, L18M, G49A, N79S, L81V, A94G, V95I, A99T, R100G
VL: B2 VL with L4M, Y40F, M82L, M89V, Y91F
notes: Expressed from pKANTEX93
B16: 10D5-2-3 antibody-humanized antibody HV7aLV0 (antibody, V domains shown)
VH: B2 VH with G8R, L18M, G49A, N79S, A94G, A99T, R100G
VL: B2 VL with L4M, P81S, M82L, M89V
notes: Expressed from pKANTEX93
B17: 10D5-2-3 antibody-humanized antibody HV7aLV2 (antibody, V domains shown)
VH: B2 VH with G8R, L18M, G49A, N79S, A94G, A99T, R100G
VL: B2 VL with L4M, Y40F, P81S, M82L, M89V, Y91F
notes: Expressed from pKANTEX93
B18: 10D5-2-3 antibody-humanized antibody HV9LV4 (antibody, V domains shown)
VH: B2 VH with G8R, L18M, G49A, N79S, L81V, A94G, V95I, A99T, R100G
VL: B2 VL
notes: Expressed from pKANTEX93
B19: 10D5-2-3 antibody-humanized antibody HV9LV6 (antibody, V domains shown)
VH: B2 VH with G8R, L18M, G49A, N79S, L81V, A94G, V95I, A99T, R100G
VL: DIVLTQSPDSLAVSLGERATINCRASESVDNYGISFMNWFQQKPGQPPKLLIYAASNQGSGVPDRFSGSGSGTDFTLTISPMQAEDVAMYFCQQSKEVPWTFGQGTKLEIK
notes: Expressed from pKANTEX93
B20: 10D5-2-3 antibody-humanized antibody HV9LV0 (antibody, V domains shown)
VH: B2 VH with G8R, L18M, G49A, N79S, L81V, A94G, V95I, A99T, R100G
VL: B2 VL with L4M, P81S, M82L, M89V
notes: Expressed from pKANTEX93
B21: 10D5-2-3 chimeric antibody (c10D5-2-3 antibody) (antibody, V domains shown)
VH: EVKLEESRGGLVQPGGSMKLSCVASGFTFSNYWMNWVRQSPEKGLEWVAHIRLKSDNYATHYAESVRGRFTISRDDSKSSVFLQMNNLRAEDTGIYYCTGGSNYVFAFWGQGTLVTVSA
VL: not shown
notes: Human chimeric antibody; The V regions were cloned into the humanized antibody expression vector pKANTEX93

One test addresses T1, human mature dimer BMP10 recombinant …. Kind of test: ELISA, immobilized antigen (100 ng/mL coat), biotin-labeled antibody at 100 ng/mL, absorbance 450-570 nm. How it is done: To examine specificity of the obtained antibodies to human BMP9, their binding ability to human BMP9 and human BMP10 having the highest homology to human BMP9 was tested by comparison. First, 100 ng/mL of human mature dimer BMP9 recombinant protein (manufactured by R&D systems, Cat#3209-BP), or human mature dimer BMP10 recombinant protein (manufactured by R&D systems, Cat#2926-BP) prepared in 50 mmol/L NaHCO₃ buffer (manufactured by Wako, Cat#191-01305) was added to a 96-well plate for ELISA (F96 MAXISORP NUNC-IMMUNO PLATE, manufactured by Thermo Fisher Scientific, Cat#442404) at an amount of 50 μL/well, and left at 4° C. overnight for adsorption.
Subsequently, 6D10-1-1 antibody, 10D5-2-3 antibody, 3B7-3-3 antibody, R&D antibody, or anti-BMP10 antibody (manufactured by R&D, Cat#MAB2926) that was labeled with biotin using a Biotin Labeling Kit-NH2 (manufactured by COSMO BIO, Cat#LK03) was prepared at a concentration of 100 ng/mL using 10% Super Block in TBST which was prepared by mixing SuperBlock and TBST at a ratio of 1:9. 50 μL/well thereof was aliquoted as a primary antibody, and left at room temperature for 1 hour.
The plate was washed with TBST five times, and 50 μL/well of the TMB substrate reagent (TMB+ Substrate-Chromogen, manufactured by Dako, Cat#S1599) was added for color-development. When proper color was developed, 50 μL/well of the 1 N sulfuric acid solution (manufactured by Wako, Cat#192-04755) was added, and absorbance (450 nm-570 nm) at a sample wavelength of 450 nm and at a reference wavelength of 570 nm was determined using a plate reader (manufactured by Spectra Max, Molecular Devices).
For the molecule B1, the binding result is on record as “no binding (tested: 100 ng/mL)”.

A further test has as its target T2, human mature dimer BMP9 recombinant …. Kind of test: SPR (Biacore T100), antibody captured on anti-human IgG, human BMP9 as analyte. How it is done: (§1) For the purpose of comparing binding activity to human BMP9 between c10D5-2-3 antibody and 22 types of 10D5-2-3 antibody-humanized antibodies obtained in Example 22-7, binding activity to human BMP9 recombinant protein (manufactured by R&D systems) was measured by surface plasmon resonance (SPR) using a BiacoreT100 instrument (manufactured by GE Healthcare bioscience).
(§2) Anti-human IgG antibody was immobilized onto a CM5 sensor chip (manufactured by GE Healthcare bioscience) using a Human Antibody Capture Kit (manufactured by GE Healthcare bioscience) in accordance with the accompanying protocol. 0.4 μg/mL of c10D5-2-3 antibody or each humanized antibody was applied to the flow cell onto which anti-human IgG antibody was immobilized, at a flow rate of 10 μL/min for 2 minutes.
(§3) Subsequently, human BMP9 recombinant protein (manufactured by R&D systems, Cat#3209-BP) was subjected to 2-fold serial dilution starting from […] to give 5 concentrations, and applied at a flow rate of 10 μL/min, and association was monitored over 3 minutes and dissociation over 3 minutes at a flow of 10 μL/min. The sensorgram thus obtained was analyzed by BiaEvaluation Software (manufactured by GE Healthcare bioscience) to calculate the rate constant of each antibody.
In general terms: Surface plasmon resonance follows binding to a sensor surface in real time, without labels.
With B2, the binding result is “no binding (tested: human BMP9 up to 1 nM)”.
In the case of B3, the binding result was “no binding (tested: human BMP9 up to 1 nM)”.

The target is the same in the next test. Put plainly: SPR (Biacore T100), antibody captured on anti-human IgG, human BMP9 (R&D 3209-BP) as analyte, 5 concentrations from 1 nM. How it is done:
as §1, §2, §3
One may read the Kd as the constant that tells how readily two partners part at equilibrium. Broadly, the koff is the first-order rate constant of dissociation. Usually kon stands for a measure of how fast the partners come together. Consider B4, for which the Kd was determined as 11.6 pM, the koff worked out at 0.000596 s⁻¹ and the kon was 5.12e+07 M⁻¹ s⁻¹.
Taken in the same sequence, the figures for B5 were 9.24 pM, 0.00145 s⁻¹ and 1.57e+08 M⁻¹ s⁻¹.
As to B6, the Kd turned out to be 3.89 pM, the koff stood at 0.000347 s⁻¹ and the kon is 8.91e+07 M⁻¹ s⁻¹.
With B7, the Kd is 10.9 pM, the koff was found to be 0.000588 s⁻¹ and the kon is 5.39e+07 M⁻¹ s⁻¹.
Turning to B8, the Kd amounted to 11.4 pM, the koff came to 0.00164 s⁻¹ and the kon was determined as 1.44e+08 M⁻¹ s⁻¹.
As to B9, the Kd came to 11.4 pM, the koff was 0.00172 s⁻¹ and the kon is 1.51e+08 M⁻¹ s⁻¹.
Take B10: the Kd came to 9.49 pM, the koff was 0.000516 s⁻¹ and the kon worked out at 5.43e+07 M⁻¹ s⁻¹.
Consider B11, for which the Kd came out at 11.9 pM, the koff turned out to be 0.000555 s⁻¹ and the kon is 4.67e+07 M⁻¹ s⁻¹.
With B12, the Kd worked out at 11.9 pM, the koff amounted to 0.000531 s⁻¹ and the kon worked out at 4.46e+07 M⁻¹ s⁻¹.
On to B13, for which the Kd amounted to 10.1 pM, the koff worked out at 0.000556 s⁻¹ and the kon came out at 5.5e+07 M⁻¹ s⁻¹.
Taken in the same sequence, the figures for B14 were 4.91 pM, 0.000307 s⁻¹ and 6.25e+07 M⁻¹ s⁻¹.
Consider B15, for which the Kd stood at 3.52 pM, the koff was 0.000279 s⁻¹ and the kon stood at 7.91e+07 M⁻¹ s⁻¹.
Regarding B16, the Kd amounted to 9.69 pM, the koff was determined as 0.00142 s⁻¹ and the kon was found to be 1.47e+08 M⁻¹ s⁻¹.
On the same counts, the results for B17 are 9.57 pM, 0.000477 s⁻¹ and 4.98e+07 M⁻¹ s⁻¹.
Take B18: the Kd was 6.38 pM, the koff was 0.000739 s⁻¹ and the kon was 1.16e+08 M⁻¹ s⁻¹.
For the molecule B19, the Kd was 5.13 pM, the koff stood at 0.000325 s⁻¹ and the association rate constant (kon) was 6.34e+07 M⁻¹ s⁻¹.
Consider B20, for which the Kd is 6.45 pM, the koff is 0.000859 s⁻¹ and the kon came to 1.33e+08 M⁻¹ s⁻¹.
As for B21, the Kd turned out to be 4.52 pM, the koff came to 0.00024 s⁻¹ and the kon was 5.32e+07 M⁻¹ s⁻¹.
